# B1: Arch 3 WT: Archaerhodopsin 3, light-driven proton pump from Halorubrum sodomense, used as fluorescent voltage indicator (protein)
# chain: MDPIALQAGYDLLGDGRPETLWLGIGTLLMLIGTFYFLVRGWGVTDKDAREYYAVTILVPGIASAAYLSMFFGIGLTEVTVGGEMLDIYYARYADWLFTTPLLLLDLALLAKVDRVTIGTLVGVDALMIVTGLIGALSHTAIARYSWWLFSTICMIVVLYFLATSLRSAAKERGPEVASTFNTLTALVLVLWTAYPILWIIGTEGAGVVGLGIETLLFMVLDVTAKVGFGFILLRSRAILGDTEAPEPSAGADVSAAD
# modifications: Halorubrum sodomense
# notes: Archaerhodopsin 3, light-driven proton pump from Halorubrum sodomense, used as fluorescent voltage indicator
# Key:
# [1] = Spectroscopic characterization of purified Arch WT and D95N; format: physicochemical
# Protocol: FIGS. 17A-17C show pH-dependent spectra of Arch 3 WT and D95N. […] At neutral pH, Arch absorbed maximally at 558 nm. Fluorescence emission (dashed line) was recorded on 2 μM protein solubilized in 1% DM, with λexc=532 nm. […] The absorption maximum was at 585 nm. […] Singular Value Decomposition of absorption spectra between 400-750 nm was used to calculate the fraction of the SB in the protonated state as a function of pH. The result was fit to a Hill function to determine the pKa of the SB.
# Arch and its D95N mutant were expressed and purified from E. coli, following Bergo, V., et al. (Conformational changes detected in a sensory rhodopsin II-transducer complex. J. Biol. Chem. 278, 36556-36562 (2003)). Briefly, E. coli (strain BL21, pet28b plasmid) was grown in 1 L of LB with 100 μg/mL kanamycin, to an O.D 600 of 0.4 at 37° C. All-trans retinal (5 μM) and inducer (IPTG 0.5 mM) were added and cells were grown for an additional 3.5 hours in the dark. Cells were harvested by centrifugation and resuspended in 50 mM Tris, 2 mM MgCl2 at pH 7.3 and lysed with a tip sonicator for 5 minutes. The lysate was centrifuged and the pellet was resuspended in PBS supplemented with 1.5% dodecyl maltoside (DM). The mixture was homogenized with a glass/teflon Potter Elvehjem homogenizer and centrifuged again. The supernatant was concentrated and washed using a centricon 30k MWCO filter to a final volume of 3 mL.
# The absorption spectra of purified Arch 3 WT and D95N were determined using an Ocean Optics USB4000 spectrometer with a DT-MINI-2-GS light source. Absorption spectra, for Arch 3 WT and D95N, were measured as a function of pH between pH 6 and 11. To determine the fluorescence emission spectra, proteins in a quartz cuvette were illuminated with the uncollimated beam of a 100 mW, 532 nm laser (Dragon Lasers, 532GLM100) or a 25 mW, 633 nm HeNe laser (Spectra-Physics). Scattered laser light was blocked with a 532 nm Raman notch filter (Omega Optical, XR03) or a 710/100 emission filter (Chroma), and fluorescence was collected perpendicular to the illumination with a 1000 micron fiber, which passed the light to an Ocean Optics QE65000 spectrometer. Spectra were integrated for 2 seconds.
# The fluorescence quantum yields of Arch 3 WT and D95N were determined by comparing the integrated emission intensity to emission of a sample of the dye ALEXA FLUOR® 647 Conjugate. Briefly, the concentrations of micromolar solutions of dye and protein were determined using a visible absorption spectrum. […] The fluorescence emission spectra of dye and protein samples were measured with 633 nm excitation. The quantum yield was then determined by the formula
# where Fl is the integrated fluorescence from 660 to 760 nm, ε is the extinction coefficient at 633 nm and c is the concentration.
# neurons = experiment: Light-induced photocurrent and perturbation of membrane potential in neurons; format: cell-based, rat; settings: I=1800 W/cm2, TIR mode
# Source text: Under illumination conditions typically used for imaging neural activity (I=1800 W/cm2 in total internal reflection (TIR) mode), the light-induced outward photocurrent was typically 10 pA in neurons expressing Arch 3 WT. Under current-clamp conditions this photocurrent shifted the resting potential of the neurons by up to −20 mV. For neurons near their activation threshold, this photocurrent could suppress firing (FIG. 9A), so we explored the non-pumping variant D95N as a voltage indicator in neurons.
# Whole-cell current clamp recordings were obtained from mature neurons under the same conditions used for HEK cells recordings. Series resistance and pipette capacitance were corrected. Only neurons having resting potentials between −50 and −70 mV were used in the analysis.
# [2] = test system: cultured rat hippocampal neurons; experiment: Optical recording of action potentials under whole cell current clamp; format: cell-based
# Source text: We tested Arch 3 as a voltage indicator in cultured rat hippocampal neurons, using viral delivery. […] Individual spikes were accompanied by clearly identifiable increases of fluorescence (FIG. 7A). At a 2 kHz image acquisition rate, the signal-to-noise ratio in the fluorescence (spike amplitude:baseline noise) was 10.5.
# Simultaneous fluorescence and whole-cell patch clamp recordings were acquired on a home-built, inverted epifluorescence microscope at room temperature. A diode laser operating at 100 mW, 640 nm (CrystaLaser, DL638-100-O) provided wide-field illumination at an intensity typically between 500-2000 W/cm^2. To minimize background signal from out-of-focus debris, illumination was often performed in through-the-objective total internal reflection fluorescence (TIRF) mode. Fluorescence emission was collected using a 60×, 1.45 NA oil immersion objective (Olympus), and separated from scattered excitation using a 660-760 nm bandpass emission filter (Chroma). For fast imaging of dynamic fluorescence responses and action potentials, images were acquired on an Andor iXon^+ 860 camera operating at up to 2,000 frames/s (using a small region of interest and pixel binning). Slower images with higher spatial resolution were acquired on an Andor iXon^+ 897 EMCCD. Custom software written in LabView (National Instruments) was used to synchronize illumination, collection of images, recording of membrane potential and cell current, and application of electrical stimuli to the cell.
# E18 rat hippocampi were purchased from BrainBits and mechanically dissociated in the presence of 1 mg/mL papain (Worthington) before plating at 5,000-30,000 cells per dish on poly-L-lysine and Matrigel-coated (BD Biosciences) glass-bottom dishes. Cells were incubated in N+ medium (100 mL Neurobasal medium, 2 mL B27 supplement, 0.5 mM glutamine, 25 μM glutamate, penicillin-streptomycin) for 3 hours. […]
# A spike identification algorithm was developed that could be applied either to electrically recorded V(t) or to optically determined V(t). […]
molecule,measurement,setting,value
B1,ε633,"[1]; calibrated assuming peak extinction coefficient of Bacteriorhodopsin, 63,000 M^−1 cm^−1","6,300 M^−1cm^−1"
same,QY,"[1]; comparison to Alexa 647, excitation at 633 nm, listed as Arch WT",9 × 10^−4
same,light-induced outward photocurrent,neurons,~10 pA
same,signal-to-noise ratio in the fluorescence (spike amplitude:baseline noise),[2]; 2 kHz image acquisition rate,10.5
same,false-positive rate,[2]; n=269 spikes,0.7%
same,change in resting potential or spike frequency during observation,[2]; up to 4 minutes of cumulative exposure,no detectable change in resting potential or spike frequency
